Laboratory results published in paper PMC8295500, “Co-Immobilized Capillary Enzyme Reactor Based on Beta-Secretase1 and Acetylcholinesterase: A Model for Dual-Ligand Screening” (Frontiers in Chemistry, 2021).

Substrate: CC(=O)OCC[N+](C)(C)C
Assay: purified protein
Assay type: biochemical, Homo sapiens

B1: acetylcholinesterase (huAChE) (Homo sapiens) (protein)
chain: EGREDAELLVTVRGGRLRGIRLKTPGGPVSAFLGIPFAEPPMGPRRFLPPEPKQPWSGVVDATTFQSVCYQYVDTLYPGFEGTEMWNPNRELSEDCLYLNVWTPYPRPTSPTPVLVWIYGGGFYSGASSLDVYDGRFLVQAERTVLVSMNYRVGAFGFLALPGSREAPGNVGLLDQRLALQWVQENVAAFGGDPTSVTLFGESAGAASVGMHLLSPPSRGLFHRAVLQSGAPNGPWATVGMGEARRRATQLAHLVGCPPGGTGGNDTELVACLRTRPAQVLVNHEWHVLPQESVFRFSFVPVVDGDFLSDTPEALINAGDFHGLQVLVGVVKDEGSYFLVYGAPGFSKDNESLISRAEFLAGVRVGVPQVSDLAAEAVVLHYTDWLHPEDPARLREALSDVVGDHNVVCPVAQLAGRLAAQGARVYAYVFEHRASTLSWPLWMGVPHGYEIEFIFGIPLDPSRNYTAEEKIFAQRLMRYWANFARTGDPNEPRDPKAPQWPPYTAGAQQYVSLDLRPLEVRRGLRAQACAFWNRFLPKLLSATDTLDEAERQWKAEFHRWSSYMVHWKNQFDHYSKQDRCSDL
notes: human recombinant, expressed in HEK 293 cells; immobilized on fused silica capillary
With B1 the Km was 23.3 ± 1 µM.
